Test results from article PMC11672316, “Identification of ANXA1 as a Novel Upstream Negative Regulator of Notch1 Function in AML” (Advanced Science, 2024).
Bridge positions count the residues as written; N and C are the ends. Ends that are not written are not given here. Peptide text beside a SMILES is read from it.

Assays:
[1] = molecular target: T1, ANXA1 (Homo sapiens, UniProt P04083); assay: BLI analysis, NICD peptides to immobilized ANXA1; type: binding; conditions: for Koff: Octet Red96, ANXA1 immobilized on SSA sensor, peptides in SD buffer
T1 construct: made in house; host or cells: E. coli BL21
T1 sequence (P04083 1-346): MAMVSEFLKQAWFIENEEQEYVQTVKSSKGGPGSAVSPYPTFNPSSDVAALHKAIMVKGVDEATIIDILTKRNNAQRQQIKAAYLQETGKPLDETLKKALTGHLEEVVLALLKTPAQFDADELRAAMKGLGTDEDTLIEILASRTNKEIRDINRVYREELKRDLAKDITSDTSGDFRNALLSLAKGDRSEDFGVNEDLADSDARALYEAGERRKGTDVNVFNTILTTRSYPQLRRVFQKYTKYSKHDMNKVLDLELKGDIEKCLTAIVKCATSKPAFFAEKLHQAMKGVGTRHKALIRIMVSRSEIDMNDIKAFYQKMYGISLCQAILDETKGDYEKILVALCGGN
Description: (§1) AlphaFold2 and ClusPro servers were used to dock NICD and ANXA1.^[ [35] ^] The predictions were tested by GST‐pull down assay, bio‐layer interferometry (BLI) analysis, and chemical cross‐linking coupled with mass spectrometry. Details of these procedures are described in Materials and Methods (Supporting Information).
(§2) For bio‐layer interferometry (BLI) analyses performed by Octet Red96 system (Sartorius), purified NICD protein was immobilized on SA sensor (Sartorius) after labeling with Sulfo-NHS-Biotin (EZ-Link) and dialysis. To determine binding kinetics, five concentrations of purified ANXA1 protein were prepared with PBST (PBS containing 0.02% Tween-20) and measured from low to high concentrations by NICD-immobilized biosensors to obtain the association and dissociation sensorgram data. For detection of the interaction between protein and small molecular peptides, purified ANXA1 protein was immobilized on SSA sensor (Sartorius) to detect the binding kinetics of NICD peptides, which were diluted in SD buffer (PBST plus 0.1% w v^-1 BSA). The kinetic parameters Kon, Koff and KD were determined using Octct data analysis software.

[2] = system: KG1a cells
[3] = system: HL60 cells
[4] = system: NICD; assay: BLI analysis, ANXA1 proteins to immobilized NICD; type: binding, human; conditions: for binding affinity with NICD: Figure 2E; for Koff / Kon / Kd: Octet Red96, biotinylated NICD immobilized on SA sensor; for Koff / Kon: ANXA1 protein in PBST; for Kd: five concentrations of ANXA1 protein in PBST (PBS containing 0.02% Tween-20)
Description: as §1, §2

[5] = molecular target: intracellular domain of Notch1 (NICD), protein used in BLI and cross-linking; assay: BLI; NICD with full-length ANXA1 or the C-terminal domain of ANXA1 at increasing concentrations; who was immobilised is not told in the main text (scheme in Figure 2D)
[6] = molecular target: T2, GST-tagged full-length ANXA1 (Annexin A1) (human, UniProt P04083 1-346); assay: BLI; Octet Red96; purified ANXA1 protein immobilised on SSA sensor; NICD peptides diluted in SD buffer (PBST plus 0.1% w/v BSA); conditions: both partners purified
T2 construct: Annexin A1 (ANXA1), human, full length; In the BLI with peptides it was immobilised on an SSA sensor; also called GST-ANXA1; source: E. coli BL21, purified (GST resin)
T2 sequence (looked up): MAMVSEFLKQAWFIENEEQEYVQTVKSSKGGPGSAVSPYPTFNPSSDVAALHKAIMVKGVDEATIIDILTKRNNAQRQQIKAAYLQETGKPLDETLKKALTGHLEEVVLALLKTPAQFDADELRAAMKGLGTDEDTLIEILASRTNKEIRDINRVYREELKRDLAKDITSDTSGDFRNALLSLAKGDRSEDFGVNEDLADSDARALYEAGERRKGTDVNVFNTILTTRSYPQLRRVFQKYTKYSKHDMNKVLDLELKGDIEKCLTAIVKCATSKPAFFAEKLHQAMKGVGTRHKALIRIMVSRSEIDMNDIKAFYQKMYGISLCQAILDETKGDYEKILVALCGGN

[7] = system: Notch1; assay: GST-pull down assay of Notch1 from KG1a cell lysate; type: binding, human; conditions: western blotting, 4°C overnight; Figure S4C
Description: For GST-pull down assay, the purified GST fusion proteins were incubated with precleared GST resin (Solarbio) for 5 hours at 4°C. The precipitation was washed four times with PBS and captured the Notch1 protein from prepared cell lysates at 4°C overnight. The complexes were washed four times with PBS before being eluted in SDS-gel loading buffer and detected by western blotting.
Figure S4. GST pull down analysis of the interaction between ANXA1 and Notch1, related to Figure 2. (A) Schematic diagram of GST-tagged fusion protein structure of ANXA1 full-length, C-terminal, and N-terminal domain. (B) Coomassie blue-stained SDS gel image of GST-tagged fusion protein of full-length ANXA1, and N-terminal, and C-terminal domains of ANXA1. (C) Western blotting of Notch1 and ANXA1 expression in complexes pulled-down by GST-ANXA1 in sgANXA1#3 and sgControl cells of KG1a.

[8] = system: NICD (Δ2,050−2,060); assay: BLI analysis of ANXA1 binding NICD (Δ2,050−2,060); design: species or system human; conditions: Figure S6E
Description: as §2
Figure S6. ANXA1 (214−228) and NICD (2,050−2,060) mediate the protein-protein interaction, related to Figure 2J. (A) mRNA expression of ANXA1 detected by qPCR in KG1a-sgANXA1 and HL60-sgANXA1 cells. […] (C) The cell proliferation ability detected by CCK8 assay after 96 hours of culture of KG1a or HL60 cells stably transfected with sgANXA1 or sgControl plasmids. (D) The cell proliferation ability detected by CCK8 assay after 96 hours of culture of KG1a-sgANXA1 and HL60-sgANXA1 cells transiently transfected with ANXA1 (Δ214−228) plasmid. […]

## CSCC[C@H](NC(=O)[C@H](CC(=O)O)NC(=O)[C@H](CCCCN)NC(=O)[C@H](CC(N)=O)NC(=O)[C@H](C)NC(=O)CNC(=O)[C@H](CC(N)=O)NC(=O)[C@H](CCCCN)NC(=O)[C@H](CC(C)C)NC(=O)[C@@H]1CSSC[C@H](NC(=O)[C@H](C)NC(=O)[C@H](CO)NC(=O)[C@@H](N)CCCCN)C(=O)N[C@@H](Cc2c[nH]cn2)C(=O)N[C@@H](Cc2c[nH]c3ccccc23)C(=O)N[C@@H](C)C(=O)N[C@@H](C)C(=O)N[C@@H](C)C(=O)N[C@@H](C(C)C)C(=O)N[C@@H](CC(N)=O)C(=O)N[C@@H](CC(N)=O)C(=O)N[C@@H](C(C)C)C(=O)N[C@@H](CC(=O)O)C(=O)N[C@@H](C)C(=O)N[C@@H](C)C(=O)N[C@@H](C(C)C)C(=O)N[C@@H](C(C)C)C(=O)N1)C(=O)N[C@@H](CCC(N)=O)C(=O)N[C@@H](CC(N)=O)C(=O)N[C@@H](CC(N)=O)C(=O)N[C@@H](CCCNC(=N)N)C(=O)O [NICD-5c] (H-KSACHWAAAVNNVDAAVVCLKNGANKDMQNNR-OH; disulfide 4-19)
[1]
  Koff: 1.08×10^-2 1 s^-1

## KSALHWAAAVNNVDAAVVLLKNGANKDMQNNR [NICD-5l]
[1]; Figures 2I and S5B
  binding affinity with GST-ANXA1: increased the binding affinity with GST‐ANXA1 in a dose‐dependent manner
[1]
  Koff: 1.27×10^-2 1 s^-1
[2]; KG1a, CCK8, 72 h, Figure 2K, means ± s.e.m. of three independent experiments
  inhibition of cell proliferation: significantly inhibited the proliferation of KG1a and HL60 cells in a dose‐dependent manner
[3]; HL60, CCK8, 72 h, Figure 2K, means ± s.e.m. of three independent experiments
  inhibition of cell proliferation: significantly inhibited the proliferation of KG1a and HL60 cells in a dose‐dependent manner

## RKKRRQRRR [TAT, reference compound]
[2]
  cell damage: barely caused cell damage
[3]
  cell damage: barely caused cell damage

B1: GST-tagged C-terminal domain of ANXA1 (domain or fragment)
chain: PSSDVAALHKAIMVKGVDEATIIDILTKRNNAQRQQIKAAYLQETGKPLDETLKKALTGHLEEVVLALLKTPAQFDADELRAAMKGLGTDEDTLIEILASRTNKEIRDINRVYREELKRDLAKDITSDTSGDFRNALLSLAKGDRSEDFGVNEDLADSDARALYEAGERRKGTDVNVFNTILTTRSYPQLRRVFQKYTKYSKHDMNKVLDLELKGDIEKCLTAIVKCATSKPAFFAEKLHQAMKGVGTRHKALIRIMVSRSEIDMNDIKAFYQKMYGISLCQAILDETKGDYEKILVALCG
[4]
  binding affinity with NICD: dose‐dependently increased the binding affinity with NICD
  Koff: 1.68×10^-2 1 s^-1
  Kon: 3.15×10^3 1 Ms^-1
  Kd: 5.32 µM
[5]
  Kd: 5.32 µM

B2: NICD-5l peptide (peptide)
peptide: KSALHWAAAVNNVDAAVVLLKNGANKDMQNNR
notes: also called NICD-5 linear peptide; source: synthetic peptide (solid phase, Wang resin)
[6]
  Kd: 154 µM

B3: NICD-5c peptide (peptide)
peptide: KSACHWAAAVNNVDAAVVCLKNGANKDMQNNR-OH
modifications: bridge 4-19; also: cyclisation chemistry not given here
notes: also called NICD-5 cyclic peptide; source: synthetic peptide (solid phase, Wang resin)
[6]
  Kd: 223 µM

B4: GST-tagged full-length Annexin A1 (ANXA1) (natural protein)
chain: MAMVSEFLKQAWFIENEEQEYVQTVKSSKGGPGSAVSPYPTFNPSSDVAALHKAIMVKGVDEATIIDILTKRNNAQRQQIKAAYLQETGKPLDETLKKALTGHLEEVVLALLKTPAQFDADELRAAMKGLGTDEDTLIEILASRTNKEIRDINRVYREELKRDLAKDITSDTSGDFRNALLSLAKGDRSEDFGVNEDLADSDARALYEAGERRKGTDVNVFNTILTTRSYPQLRRVFQKYTKYSKHDMNKVLDLELKGDIEKCLTAIVKCATSKPAFFAEKLHQAMKGVGTRHKALIRIMVSRSEIDMNDIKAFYQKMYGISLCQAILDETKGDYEKILVALCGGN
[5]
  Kd: 18.4 µM

B5: GST-tagged ANXA1: GST-tagged fusion protein of full-length ANXA1 (protein)
chain: MAMVSEFLKQAWFIENEEQEYVQTVKSSKGGPGSAVSPYPTFNPSSDVAALHKAIMVKGVDEATIIDILTKRNNAQRQQIKAAYLQETGKPLDETLKKALTGHLEEVVLALLKTPAQFDADELRAAMKGLGTDEDTLIEILASRTNKEIRDINRVYREELKRDLAKDITSDTSGDFRNALLSLAKGDRSEDFGVNEDLADSDARALYEAGERRKGTDVNVFNTILTTRSYPQLRRVFQKYTKYSKHDMNKVLDLELKGDIEKCLTAIVKCATSKPAFFAEKLHQAMKGVGTRHKALIRIMVSRSEIDMNDIKAFYQKMYGISLCQAILDETKGDYEKILVALCGGN
modifications: left off: GST, end not stated, kept
[7]
  pull-down of Notch1 from cell lysate: Notch1 in the cell lysate could be pulled down by GST‐tagged ANXA1

B6: Full-length ANXA1: purified full-length Annexin A1 protein (protein)
chain: MAMVSEFLKQAWFIENEEQEYVQTVKSSKGGPGSAVSPYPTFNPSSDVAALHKAIMVKGVDEATIIDILTKRNNAQRQQIKAAYLQETGKPLDETLKKALTGHLEEVVLALLKTPAQFDADELRAAMKGLGTDEDTLIEILASRTNKEIRDINRVYREELKRDLAKDITSDTSGDFRNALLSLAKGDRSEDFGVNEDLADSDARALYEAGERRKGTDVNVFNTILTTRSYPQLRRVFQKYTKYSKHDMNKVLDLELKGDIEKCLTAIVKCATSKPAFFAEKLHQAMKGVGTRHKALIRIMVSRSEIDMNDIKAFYQKMYGISLCQAILDETKGDYEKILVALCGGN
modifications: left off: GST, end not stated, kept
notes: purified full-length Annexin A1 protein
[4]
  binding affinity with NICD: dose‐dependently increased the binding affinity with NICD
  Koff: 2.88×10^-2 1 s^-1
  Kon: 1.57×10^3 1 Ms^-1
  Kd: 18.4 µM

B7: ANXA1: Annexin A1, Ca2+-dependent phospholipid-binding protein (protein)
chain: MAMVSEFLKQAWFIENEEQEYVQTVKSSKGGPGSAVSPYPTFNPSSDVAALHKAIMVKGVDEATIIDILTKRNNAQRQQIKAAYLQETGKPLDETLKKALTGHLEEVVLALLKTPAQFDADELRAAMKGLGTDEDTLIEILASRTNKEIRDINRVYREELKRDLAKDITSDTSGDFRNALLSLAKGDRSEDFGVNEDLADSDARALYEAGERRKGTDVNVFNTILTTRSYPQLRRVFQKYTKYSKHDMNKVLDLELKGDIEKCLTAIVKCATSKPAFFAEKLHQAMKGVGTRHKALIRIMVSRSEIDMNDIKAFYQKMYGISLCQAILDETKGDYEKILVALCGGN
modifications: left off: GST, end not stated, kept
[8]
  interaction with NICD lacking 2050–2060: the interaction between NICD and ANXA1 was also lost due to the deletion of 2050–2060 amino acid domain of NICD
